This note sets out measurements from patent US11472839B2, “Peptide capable of forming a gel for use in tissue engineering and bioprinting” (KING ABDULLAH UNIVERSITY OF SCIENCE AND TECHNOLOGY, priority 2017, dated 2022).

The nature of data set [1]: Peptide hydrogel preparation / self-assembly (gelation). Type of data set: physicochemical. The conditions noted are these: FIG. 1A. The procedure: Lyophilized peptides were dissolved in milliQ water and vortexed to get a homogenous solution. Subsequently, 10× phosphate buffered saline at the final concentration of 1× was added to the peptide solution and vortexed shortly. Gelation occurred within few seconds to minutes or hours depending on the peptide sequence.

Data set [2] can be described thus: Transmission electron microscopy (TEM) of peptide nanofibers. Type of data set: physicochemical. The conditions noted are these: TEM images (13 for IVFK, 10 for IVZK), distribution curve; IVZK shows three types of average diameter, 8.6 nm most abundant, 4.0 nm single monomer fiber. The procedure:
The TEM studies were carried out on two different instruments; Tecnai G2 Spirit Twin with accelerating voltage of 120 kV and FEI Titan G2 80-300 CT with 300 kV emission gun. The Cryo TEM imaging was performed in low dose mode by using FEI's Titan Krios operating at 300 kV. The TEM samples for peptide nanofiber were prepared from diluted peptide hydrogel in water. One drop of this solution was then introduced on a carbon coated copper grid that has been treated with glow discharge plasma before being used. The drop was then kept for 10 minutes before being blotted using filter paper. To get a better contrast, the grid was stained using 2% uranyl acetate for 1 minute and then was dried for at least one day before imaging. The diameter of IVFK and IVZK peptide nanofibers were measured using an image-analysis software ImageJ from 13 and 10 TEM images, respectively. A size distribution histogram for each peptide nanofiber was created in Origin to calculate the average diameter of both peptides. See e.g. FIG. 1B.

Non-standard residues stand in square brackets, D forms with d. Cha = N[C@@H](CC1CCCCC1)C(=O)O

In the case of Ac-IVFK-NH2, in data set [1], the self-assembly into hydrogel entry is recorded as “self-assemble into macromolecular nanofibrous hydrogels”. Further, the average fiber diameter in data set [2] is given as 10.3 nm.

In the case of “Ac-IVOK-NH2 (Ac-IV[Cha]K-NH2; SMILES CC[C@H](C)[C@H](NC(C)=O)C(=O)N[C@H](C(=O)N[C@@H](CC1CCCCC1)C(=O)N[C@@H](CCCCN)C(N)=O)C(C)C) [IVZK, ultrashort self-assembling peptide; Z undefined, probably cyclohexylalanine]”, in data set [1], the self-assembly into hydrogel result is recorded as “self-assemble into macromolecular nanofibrous hydrogels”.
